For two molecules, Activity and Km results are on record in ChEMBL document CHEMBL2073772, “Primary active transport of organic anions on bile canalicular membrane in humans” (Am J Physiol, 1999).

In data set [1] the target is ATP-binding cassette sub-family C member 2 (Homo sapiens, UniProt Q92887). Description: (§1) TP_TRANSPORTER: uptake in bile canalicular membrane vesicles. It is filed as functional, cell membranes, Bile canalicular membrane vesicle.
Substrate in data set [2]: CNc1nc2c(Cc3cccnc3)c(C)c(O[C@@H]3O[C@H](C(=O)O)[C@@H](O)[C@H](O)[C@H]3O)c(C)c2s1
The data set is described as §1. It is filed as functional, cell membranes, Homo sapiens, Bile canalicular membrane vesicle.

Substrate in data set [3]: N[C@@H](CCC(=O)N[C@H](CSc1ccc([N+](=O)[O-])cc1[N+](=O)[O-])C(=O)NCC(=O)O)C(=O)O
Described as §1. It is filed as functional, cell membranes, Homo sapiens, Bile canalicular membrane vesicle.

Consider `Cc1c(F)c(N2CCNC(C)C2)cc2c1c(=O)c(C(=O)O[C@@H]1O[C@H](C(=O)O)[C@@H](O)[C@H](O)[C@H]1O)cn2C1CC1` (stereo partly drawn) [GREPAFLOXACIN GLUCURONIDE], for which, in data set [1], the Activity result is “substrate [+]”.

B1: ATP-binding cassette sub-family C member 2 (Homo sapiens) (protein)
chain: MLEKFCNSTFWNSSFLDSPEADLPLCFEQTVLVWIPLGYLWLLAPWQLLHVYKSRTKRSSTTKLYLAKQVFVGFLLILAAIELALVLTEDSGQATVPAVRYTNPSLYLGTWLLVLLIQYSRQWCVQKNSWFLSLFWILSILCGTFQFQTLIRTLLQGDNSNLAYSCLFFISYGFQILILIFSAFSENNESSNNPSSIASFLSSITYSWYDSIILKGYKRPLTLEDVWEVDEEMKTKTLVSKFETHMKRELQKARRALQRRQEKSSQQNSGARLPGLNKNQSQSQDALVLEDVEKKKKKSGTKKDVPKSWLMKALFKTFYMVLLKSFLLKLVNDIFTFVSPQLLKLLISFASDRDTYLWIGYLCAILLFTAALIQSFCLQCYFQLCFKLGVKVRTAIMASVYKKALTLSNLARKEYTVGETVNLMSVDAQKLMDVTNFMHMLWSSVLQIVLSIFFLWRELGPSVLAGVGVMVLVIPINAILSTKSKTIQVKNMKNKDKRLKIMNEILSGIKILKYFAWEPSFRDQVQNLRKKELKNLLAFSQLQCVVIFVFQLTPVLVSVVTFSVYVLVDSNNILDAQKAFTSITLFNILRFPLSMLPMMISSMLQASVSTERLEKYLGGDDLDTSAIRHDCNFDKAMQFSEASFTWEHDSEATVRDVNLDIMAGQLVAVIGPVGSGKSSLISAMLGEMENVHGHITIKGTTAYVPQQSWIQNGTIKDNILFGTEFNEKRYQQVLEACALLPDLEMLPGGDLAEIGEKGINLSGGQKQRISLARATYQNLDIYLLDDPLSAVDAHVGKHIFNKVLGPNGLLKGKTRLLVTHSMHFLPQVDEIVVLGNGTIVEKGSYSALLAKKGEFAKNLKTFLRHTGPEEEATVHDGSEEEDDDYGLISSVEEIPEDAASITMRRENSFRRTLSRSSRSNGRHLKSLRNSLKTRNVNSLKEDEELVKGQKLIKKEFIETGKVKFSIYLEYLQAIGLFSIFFIILAFVMNSVAFIGSNLWLSAWTSDSKIFNSTDYPASQRDMRVGVYGALGLAQGIFVFIAHFWSAFGFVHASNILHKQLLNNILRAPMRFFDTTPTGRIVNRFAGDISTVDDTLPQSLRSWITCFLGIISTLVMICMATPVFTIIVIPLGIIYVSVQMFYVSTSRQLRRLDSVTRSPIYSHFSETVSGLPVIRAFEHQQRFLKHNEVRIDTNQKCVFSWITSNRWLAIRLELVGNLTVFFSALMMVIYRDTLSGDTVGFVLSNALNITQTLNWLVRMTSEIETNIVAVERITEYTKVENEAPWVTDKRPPPDWPSKGKIQFNNYQVRYRPELDLVLRGITCDIGSMEKIGVVGRTGAGKSSLTNCLFRILEAAGGQIIIDGVDIASIGLHDLREKLTIIPQDPILFSGSLRMNLDPFNNYSDEEIWKALELAHLKSFVASLQLGLSHEVTEAGGNLSIGQRQLLCLGRALLRKSKILVLDEATAAVDLETDNLIQTTIQNEFAHCTVITIAHRLHTIMDSDKVMVLDNGKIIECGSPEELLQIPGPFYFMAKEAGIENVNSTKF
Usually Km stands for the substrate concentration at which the rate is half of its maximum. For the molecule B1, the Michaelis constant (Km) in data set [2] was found to be 14.1 µM; in data set [3], 193 µM.
